The labels stand for the following.
B1: human ICOS ectodomain (residues 21-138), untagged, disulfide-linked homodimer [human] / human ICOS-L ectodomain (residues 19-248), His-tagged, immobilised on Ni-NTA biosensors [human] (parent)
chain 1: EINGSANYEMFIFHNGGVQILCKYPDIVQQFKMQLLKGGQILCDLTKTKGSGNTVSIKSLKFCHSQLSNNSVSFFLYNLDHSHANYYFCNLSIFDPPPFKVTLTGGYLHIYESQLCCQ
chain 2: DTQEKEVRAMVGSDVELSCACPEGSRFDLNDVYVYWQTSESKTVVTYHIPQNSSLENVDSRYRNRALMSPAGMLRGDFSLRLFNVTPQDEQKFHCLVLSQSLGFQEVLSVEVTLHVAANFSVPVVSAPHSPSQDELTFTCTSINGYPRPNVYWINKTDNSLLDQALQNDTVFLNMRGLYDVVSVLRIARTPSVNIGCCIENVLLQQNLTVGSQTGNDIGERDKITENPVS

This passage reports Kd, koff and kon results from article PMC7545189, “Structural characterization of the ICOS/ICOS-L immune complex reveals high molecular mimicry by therapeutic antibodies” (Nature Communications, 2020).

Variants of B1 are the subject of the first assay. Kind of assay: BLI. Conditions: with human ICOS-L ectodomain (residues 19-248), parent: 9.8 nM, read off a plot.
As for chain 1 N90Q, the dissociation constant (Kd) was 2.7 nM.

The assay is the same for the next values; noted with them: with human ICOS-L ectodomain (residues 19-248), parent: 0.0033, read off a plot.
Consider chain 1 N90Q, for which the koff was 0.0021 s⁻¹.

Staying with this assay, now noted: with human ICOS-L ectodomain (residues 19-248), parent: 3.3e+05, read off a plot.
As for chain 1 N90Q, the kon came out at 730000 M⁻¹ s⁻¹.
